We go through 1 substance from patent US11419837B2, “Modified release orally administered amino acid formulations” (APR APPLIED PHARMA RESEARCH S.A., priority 2015, dated 2022).

The nature of data set [1]: In vivo bioavailability in pig: mean aggregate plasma concentrations of 14 amino acids. To be noted: pigs, oral by gavage; for AUC 0-last / Cmax: 0.8 g of amino acid/kg body weight. The protocol:
The following formulations were tested: • APR-04 (bkT037/72-4) • APR-07 (bkT037/73-7) • Free amino acid (bkT037/71) • Casein In Vivo Study Design: • Subjects: 8 pigs • Design: 4 formulations in crossover • Administration route and method: oral, by gavage. The product dose was administered to each animal mixed with a small amount of water (300 ml) in order to ensure fast (≤5 minutes) assumption. The total amount of the product was administered using syringes. The animals were fasted for 13.5±0.5 hours before the treatment and the access to water was suspended one hour before and one hour after the treatment. • Dose, frequency and duration of administration: The amount of product administered was based on body-weight and equaled 0.8 g of amino acid/kg body weight for each test product. The products were administered by a single administration in the morning of each day of treatment. • Wash out: 48-72 hours • Blood sampling: 0.75 h before Treatment (T), 0.5 h before T, 0.25 h before T, 0.25 h after T, 0.5 h after T, 0.75 h after T, 1 h after T, 1.25 h after T, 1.5 h after T, 2 h after T, 2.5 h after T, 3 h after T, 4 h after T, 5 h after T • Analysis: The plasma concentrations of 14 amino acids (Alanine, Arginine, Glutamine, Glycine, Histidine, Isoleucine, Leucine, Lysine, Proline, Serine, Threonine, Tryptophan, Tyrosine, Valine) were measured and analyzed. Methionine and Aspartic acid were excluded from the analysis due to stability issues. The following parameters were evaluated: Area Under the concentration/time Curve (AUC0-last), peak concentration (Cmax), time to peak concentration (Tmax) and Clast. The behavior of the two APR Formulations was compared to the formulation of Free Amino Acids and Casein. Results: […]

The nature of data set [2]: In vivo bioavailability in pig: mean of analyzed essential amino acid plasma concentrations. The conditions noted are these: ESSENTIAL AA (RAW DATA), pigs, oral by gavage, 0.8 g of amino acid/kg body weight. The protocol:
(§1) The following formulations were tested: • APR-04 (bkT037/72-4) • APR-07 (bkT037/73-7) • Free amino acid (bkT037/71) • Casein In Vivo Study Design: • Subjects: 8 pigs • Design: 4 formulations in crossover • Administration route and method: oral, by gavage. The product dose was administered to each animal mixed with a small amount of water (300 ml) in order to ensure fast (≤5 minutes) assumption. The total amount of the product was administered using syringes. The animals were fasted for 13.5±0.5 hours before the treatment and the access to water was suspended one hour before and one hour after the treatment. • Dose, frequency and duration of administration: The amount of product administered was based on body-weight and equaled 0.8 g of amino acid/kg body weight for each test product. The products were administered by a single administration in the morning of each day of treatment. • Wash out: 48-72 hours • Blood sampling: 0.75 h before Treatment (T), 0.5 h before T, 0.25 h before T, 0.25 h after T, 0.5 h after T, 0.75 h after T, 1 h after T, 1.25 h after T, 1.5 h after T, 2 h after T, 2.5 h after T, 3 h after T, 4 h after T, 5 h after T • Analysis: The plasma concentrations of 14 amino acids (Alanine, Arginine, Glutamine, Glycine, Histidine, Isoleucine, Leucine, Lysine, Proline, Serine, Threonine, Tryptophan, Tyrosine, Valine) were measured and analyzed. Methionine and Aspartic acid were excluded from the analysis due to stability issues. The following parameters were evaluated: Area Under the concentration/time Curve (AUC0-last), peak concentration (Cmax), time to peak concentration (Tmax) and Clast. The behavior of the two APR Formulations was compared to the formulation of Free Amino Acids and Casein. Results:
The amino acids aggregated together for analysis were Arginine, Histidine, Isoleucine, Leucine, Threonine, Lysine, Tryptophan and Valine. This subgroup was chosen for analysis because these amino acids cannot be endogenously synthesized. As a result, their concentrations in plasma from sampling the jugular vein may be more representative of the intestinal adsorption of the tested formulations than the non-essential amino acids whose presence in blood could be independently generated by the organism.
The statistical analysis for the date reported in Table 14c (for AUC, Cmax, and Clast: one-way repeated measures ANOVA with post hoc analysis with Bonferroni adjustment; for Tmax: Friedman test followed by multiple sign test for pairwise comparison) is reported in Table 14d.

Data set [3] is described as follows: In vivo bioavailability in pig: mean of branched chain amino acid (BCAA) plasma concentrations. The conditions noted are these: BCAA (RAW DATA), pigs, oral by gavage, 0.8 g of amino acid/kg body weight. On the procedure:
as §1
The amino acids aggregated together for analysis were valine, isoleucine and leucine. This subgroup of essential amino acids was chosen for analysis because these essential amino acids are unique among amino acids in that their first catabolic step cannot occur in the liver. As a consequence, they largely escape first-pass splanchnic metabolism (Brosnan et al).
The statistical analysis for the date reported in Table 14e (for AUC, Cmax, and Clast: one-way repeated measures ANOVA with post hoc analysis with Bonferroni adjustment; for Tmax: Friedman test followed by multiple sign test for pairwise comparison) is reported in Table 14f

Data set [4] is described as follows: In vivo bioavailability in pig: large neutral amino acid (LNAA) plasma concentrations. To be noted: LNAA (RAW DATA), pigs, oral by gavage. On the procedure:
as §1
The amino acids aggregated together for analysis were tryptophan, threonine, valine, isoleucine, leucine, histidine. […] Phenylalanine was excluded from the analysis because it was not present in the formulations tested. This subgroup of essential amino acids was chosen for analysis because LNAA share with phenylalanine a common transport system in order to enter the brain. High plasma concentration of LNAAs may reduce the uptake into the brain(Van Spronsen et al). might thus bring clinical advantages. In particular, if the analysis on the subgroup show an increased Clast for the APR formulations versus the free amino acid formulations, it can be speculated that the patient may have a sort of “prolonged protection/tolerance” to phenylalanine.

[5] abbreviates: 14 AA (BC DATA, basal values subtracted).
Setting [6] is: 14 AA (RAW DATA, basal values not subtracted).
Where [7] appears, read: tryptophan, threonine, valine, isoleucine, leucine, histidine, 0.8 g of amino acid/kg.

One may read the Cmax as the maximum level reached in the sampled fluid or tissue. Usually Tmax stands for the time at which the peak concentration occurs. For Casein, the “AUC 0-last” value in data set [1] (setting [5]) is listed as 258.9; in data set [1] (setting [6]), 1125.6; in data set [2], 969.9; in data set [3] (valine, isoleucine and leucine), 1365.3; in data set [4] (setting [7]), 868.9. The peak concentration (Cmax) in data set [1] (setting [5]) was found to be 147 µM; in data set [1] (setting [6]), 325 µM; in data set [2], 299 µM; in data set [3] (valine, isoleucine and leucine), 401 µM; in data set [4] (setting [7]), 257 µM. The Clast stood at 172.9 in data set [1] (14 AA (RAW DATA), plasma concentration at the last sampling (5h), 0.8 g of amino acid/kg); 153.0 in data set [2] (last sampling (5h)); 228.7 in data set [3] (last sampling (5h)); 143.0 in data set [4] (last sampling (5h), 0.8 g of amino acid/kg body weight). For the same substance, the time to peak (Tmax) was 1.16 h in data set [2]; 1.16 h in data set [3] (valine, isoleucine and leucine); 1.16 h in data set [4] (setting [7]).
